B1: FliF(Δ214–220) (natural protein, Salmonella enterica serovar Typhimurium)
chain: MSATASTATQPKPLEWLNRLRANPRIPLIVAGSAAVAIVVAMVLWAKTPDYRTLFSNLSDQDGGAIVAQLTQMNIPYRFANGSGAIEVPADKVHELRLRLAQQGLPKGGAVGFELLDQEKFGISQFSEQVNYQRALEGELARTIETLGPVKSARVHLAMPKPSLFVREQKSPSASVTVTLEPGRALDEGQISAVVHLVSSAVAGLPPGNVTLVTQSNTSGRDLNDAQLKFANDVESRIQRRIEAILSPIVGNGNVHAQVTAQLDFANKEQTEEHYSPNGDASKATLRSRQLNISEQVGAGYPGGVPGALSNQPAPPNEAPIATPPTNQQNAQNTPQTSTSTNSNSAGPRSTQRNETSNYEVDRTIRHTKMNVGDIERLSVAVVVNYKTLADGKPLPLTADQMKQIEDLTREAMGFSDKRGDTLNVVNSPFSAVDNTGGELPFWQQQSFIDQLLAAGRWLLVLVVAWILWRKAVRPQLTRRVEEAKAAQEQAQVRQETEEAVEVRLSKDEQLQQRRANQRLGAEVMSQRIREMSDNDPRVVALVIRQWMSNDHE
B2: FliFΔ(221–227) (natural protein, Salmonella enterica serovar Typhimurium)
chain: B1 chain with T214D, N217G, T218H, S219L, G220L
B3: FliF(Δ165–167) (natural protein, Salmonella enterica serovar Typhimurium)
chain: MSATASTATQPKPLEWLNRLRANPRIPLIVAGSAAVAIVVAMVLWAKTPDYRTLFSNLSDQDGGAIVAQLTQMNIPYRFANGSGAIEVPADKVHELRLRLAQQGLPKGGAVGFELLDQEKFGISQFSEQVNYQRALEGELARTIETLGPVKSARVHLAMPKPSLEQKSPSASVTVTLEPGRALDEGQISAVVHLVSSAVAGLPPGNVTLVDQSGHLLTQSNTSGRDLNDAQLKFANDVESRIQRRIEAILSPIVGNGNVHAQVTAQLDFANKEQTEEHYSPNGDASKATLRSRQLNISEQVGAGYPGGVPGALSNQPAPPNEAPIATPPTNQQNAQNTPQTSTSTNSNSAGPRSTQRNETSNYEVDRTIRHTKMNVGDIERLSVAVVVNYKTLADGKPLPLTADQMKQIEDLTREAMGFSDKRGDTLNVVNSPFSAVDNTGGELPFWQQQSFIDQLLAAGRWLLVLVVAWILWRKAVRPQLTRRVEEAKAAQEQAQVRQETEEAVEVRLSKDEQLQQRRANQRLGAEVMSQRIREMSDNDPRVVALVIRQWMSNDHE
B4: FliF(G217P) (natural protein, Salmonella enterica serovar Typhimurium)
chain: MSATASTATQPKPLEWLNRLRANPRIPLIVAGSAAVAIVVAMVLWAKTPDYRTLFSNLSDQDGGAIVAQLTQMNIPYRFANGSGAIEVPADKVHELRLRLAQQGLPKGGAVGFELLDQEKFGISQFSEQVNYQRALEGELARTIETLGPVKSARVHLAMPKPSLFVREQKSPSASVTVTLEPGRALDEGQISAVVHLVSSAVAGLPPGNVTLVDQSPHLLTQSNTSGRDLNDAQLKFANDVESRIQRRIEAILSPIVGNGNVHAQVTAQLDFANKEQTEEHYSPNGDASKATLRSRQLNISEQVGAGYPGGVPGALSNQPAPPNEAPIATPPTNQQNAQNTPQTSTSTNSNSAGPRSTQRNETSNYEVDRTIRHTKMNVGDIERLSVAVVVNYKTLADGKPLPLTADQMKQIEDLTREAMGFSDKRGDTLNVVNSPFSAVDNTGGELPFWQQQSFIDQLLAAGRWLLVLVVAWILWRKAVRPQLTRRVEEAKAAQEQAQVRQETEEAVEVRLSKDEQLQQRRANQRLGAEVMSQRIREMSDNDPRVVALVIRQWMSNDHE
B5: FliF(G217W) (natural protein, Salmonella enterica serovar Typhimurium)
chain: B4 chain with P217W
B6: FliF(G217A) (natural protein, Salmonella enterica serovar Typhimurium)
chain: B4 chain with P217A
B7: FliF (natural protein, Salmonella enterica serovar Typhimurium, UniProt P15928 1-560, looked up)
chain: B4 chain with P217G

Where a chain is given by its changes, count along the chain named. Names and notes keep the numbering of the source. Values joined by “and” are separate entries in the source; they are usually repeats but may differ in a detail not shown here. Identical values can stand only once.

One data set concerns the molecule itself. Briefly: negative-stain EM.
B1: the binding result was “binds”.
The same measure, in the same setting: next, B2: “binds”.
In the case of B3, the binding result is given as “binds”.
The same measure, in the same setting: the result for B4 reads “binds”.
On the same count and under the same terms, next, B5: “binds”; B6: “binds”.

Another data set concerns the molecule itself. Kind of data set: cryo-EM structure.
As to B7, the “stoichiometry N” value was 33 and 34.

The values are drawn from paper doi:10.1101/2024.07.30.605930 (bioRxiv, 2024).
